Here are results for twelve molecules from article PMC3296735.

The target of data set [1] is human GLP1R with C-terminal V5 epitope (GLP1R-V5) (human) (UniProt P43220).
Data set [2] in a line: cell surface ELISA, HA tag, CHO. The note with it: glycan lost. Background: An ELISA detects its analyte on a solid surface through an enzyme-linked reagent.
Data set [3] can be described thus: total lysate western blot. The note with it: glycan lost. A general note: Immunoblotting shows a protein as a band on a membrane.
A short description of data set [4]: cell surface biotinylation, western blot. The following applies: glycan lost.
Data set [5] in a line: cycloheximide chase western; protein remaining. The following applies: glycan lost.
Data set [6] is described as follows: calnexin co-immunolabelling intensity correlation (ER retention). The note with it: glycan lost.

B1: N62,77Q-GIPR-V5 (receptor)
chain: RAETGSKGQTAGELYQRWERYRRECQETLAAAEPPSGLACQGSFDMYVCWDYAAPQATARASCPWYLPWHHHVAAGFVLRQCGSDGQWGLWRDHTQCENPEKNEAFLDQRLILERLQVMYTVGYSLSLATLLLALLILSLFRRLHCTRNYIHINLFTSFMLRAAAILSRDRLLPRPGPYLGDQALALWNQALAACRTAQIVTQYCVGANYTWLLVEGVYLHSLLVLVGGSEEGHFRYYLLLGWGAPALFVIPWVIVRYLYENTQCWERNEVKAIWWIIRTPILMTILINFLIFIRILGILLSKLRTRQMRCRDYRLRLARSTLTLVPLLGVHEVVFAPVTEEQARGALRFAKLGFEIFLSSFQGFLVSVLYCFINKEVQSEIRRGWHHCRLRRSLGEEQRQLPERAFRALPSGSGPGEVPTSRGLSSGTLPGPGNEASRELESYC
For the molecule B1, the rescue of the cAMP response to GIP (LANCE TR-FRET) in CHO cells co-expressing N62,77Q-GIPR-V5 and wild type GLP1R-V5; EC50 of GIP (neither receptor alone gave a response that could be fitted) in data set [1] stood at 11 nM.

B2: GLP-1R (GLP1R): N63,82,115Q (protein)
parent chain: MAGAPGPLRLALLLLGMVGRAGPRPQGATVSLWETVQKWREYRRQCQRSLTEDPPPATDLFCNRTFDEYACWPDGEPGSFVNVSCPWYLPWASSVPQGHVYRFCTAEGLWLQKDNSSLPWRDLSECEESKRGERSSPEEQLLFLYIIYTVGYALSFSALVIASAILLGFRHLHCTRNYIHLNLFASFILRALSVFIKDAALKWMYSTAAQQHQWDGLLSYQDSLSCRLVFLLMQYCVAANYYWLLVEGVYLYTLLAFSVLSEQWIFRLYVSIGWGVPLLFVVPWGIVKYLYEDEGCWTRNSNMNYWLIIRLPILFAIGVNFLIFVRVICIVVSKLKANLMCKTDIKCRLAKSTLTLIPLLGTHEVIFAFVMDEHARGTLRFIKLFTELSFTSFQGLMVAILYCFVNNEVQLEFRKSWERWRLEHLHIQRDSSMKPLKCPTSSLSSGATAGSSMYTATCQASCS
B2: the localisation_or_trafficking entry in data set [2] (control: wild type HA-GLP-1R) and in data set [4] (control: wild type GLP-1R-V5) was “decreases” throughout. In addition, the expression_or_secretion result in data set [3] (control: wild type GLP-1R-V5) is recorded as “decreases”.

B3: GLP-1R (GLP1R): N63Q (protein)
parent chain: B2 parent chain
Regarding B3, in data set [2] (control: wild type HA-GLP-1R), the localisation_or_trafficking result is reported as “no change”.

B4: GLP-1R (GLP1R): N82Q (protein)
parent chain: B2 parent chain
For the molecule B4, the localisation_or_trafficking result in data set [2] (control: wild type HA-GLP-1R) is given as “no change”.

B5: GLP-1R (GLP1R): glycosylation deficient GLP-1R (N63,82,115Q) (protein)
parent chain: B2 parent chain
On to B5, for which the degradation_or_half_life result in data set [5] (control: wild type GLP-1R-V5) is listed as “decreases”.

B6: GLP-1R (GLP1R): complete glycosylation-deficient mutant (N63,82,115Q) (protein)
parent chain: B2 parent chain
Regarding B6, in data set [6] (control: wild type GLP-1R), the “localisation_or_trafficking, other: Pearson correlation” value is reported as “increases, just under 50% vs low level of correlation”.

B7: GLP-1R (GLP1R): N115Q (protein)
parent chain: B2 parent chain
Turning to B7, in data set [2] (control: wild type HA-GLP-1R), the localisation_or_trafficking result is “no change”.

B8: GIPR (GIP receptor): N62,77Q (protein)
parent chain: MTTSPILQLLLRLSLCGLLLQRAETGSKGQTAGELYQRWERYRRECQETLAAAEPPSGLACNGSFDMYVCWDYAAPNATARASCPWYLPWHHHVAAGFVLRQCGSDGQWGLWRDHTQCENPEKNEAFLDQRLILERLQVMYTVGYSLSLATLLLALLILSLFRRLHCTRNYIHINLFTSFMLRAAAILSRDRLLPRPGPYLGDQALALWNQALAACRTAQIVTQYCVGANYTWLLVEGVYLHSLLVLVGGSEEGHFRYYLLLGWGAPALFVIPWVIVRYLYENTQCWERNEVKAIWWIIRTPILMTILINFLIFIRILGILLSKLRTRQMRCRDYRLRLARSTLTLVPLLGVHEVVFAPVTEEQARGALRFAKLGFEIFLSSFQGFLVSVLYCFINKEVQSEIRRGWHHCRLRRSLGEEQRQLPERAFRALPSGSGPGEVPTSRGLSSGTLPGPGNEASRELESYC
Take B8: the localisation_or_trafficking result in data set [2] (control: wild type HA-GIPR) and in data set [4] (control: wild type GIPR-V5) was “abolishes” throughout. Also, the expression_or_secretion result in data set [3] (control: wild type GIPR-V5) was “decreases”.

B9: GIPR (GIP receptor): glycosylation deficient GIPR (N62,77Q) (protein)
parent chain: B8 parent chain
For the molecule B9, in data set [5] (control: wild type GIPR-V5), the degradation_or_half_life entry is on record as “decreases”.

B10: GIPR (GIP receptor): N77Q (protein)
parent chain: B8 parent chain
Turning to B10, the localisation_or_trafficking result in data set [2] (control: wild type HA-GIPR) and in data set [4] (control: wild type GIPR-V5) was “decreases” throughout.

B11: GIPR (GIP receptor): N62Q (protein)
parent chain: B8 parent chain
For B11, the localisation_or_trafficking entry in data set [2] (control: wild type HA-GIPR) and in data set [4] (control: wild type GIPR-V5) was “decreases” in each case.

B12: GIPR (GIP receptor): complete glycosylation-deficient mutant (N62,77Q) (protein)
parent chain: B8 parent chain
As to B12, the “localisation_or_trafficking, other: Pearson correlation” value in data set [6] (control: wild type GIPR) was “increases, about 80% vs almost no correlation”.
